Assay results published in patent WO2021180110A1.

Target: COVID-19 Spike-RBD-his fusion protein (novel coronavirus (COVID-19)), P0DTC2
Conditions: remark: other sources report otherwise

B1: CD147-his fusion protein, P35613 22-205 (receptor)
chain: AAGTVFTTVEDLGSKILLTCSLNDSATEVTGHRWLKGGVVLKEDALPGQKTEFKVDSDDQWGEYSCVFLPEPMGTANIQLHGPPRVKAVKSSEHINEGETAMLVCKSESVPPVTDWAWYKITDSEDKALMNGSESRFFVSSSQGRSELHIENLNMEADPGQYRCNGTSSKGSDQAIITLRVRSH
In the case of B1, the EC50 is reported as 68.8 µg/mL.
